Experimental data as given in US20060148705A1 (Regeneron, published 2006).

What was measured:
[1] = molecular target: T1, human VEGF165 (human, UniProt P15692-4 27-191); test: BIAcore 2000; t½ = 0.693/kd
T1 construct: also called hVEGF165
Description: (§1) Binding assays were carried out by first capturing around 100 RU of each fusion protein construct to the immobilized anti-VEGFR1 mAb, after which various concentrations (0-2 nM) of human VEGF165 were injected over the captured fusion protein surface at a flow rate of 100 μl/min for 2 minutes. The fusion protein constructs binding kinetic parameters including ka (1/Ms) (association rate constant), kd (1/s) (dissociation rate constant) and KD (dissociation equilibrium constant) were determined using the BIA evaluation 4.1 computer program (Biacore, Inc.), and t½ was determined using formula 0.693/kd (dissociation rate).

[2] = molecular target: T1, human VEGF165; test: BIAcore 2000; fusion protein captured on anti-VEGFR1 mAb, human VEGF165 (0-2 nM) injected
Description: as §1

[3] = molecular target: T1, human VEGF165; test: half-life of dissociation from hVEGF165, as described in WO/0075319
[4] = molecular target: T1, human VEGF165; test: kinetic dissociation rate from hVEGF165, as described in WO/0075319

T1 sequence (P15692 other isoform, or with tags, fused parts or gaps limits assumed): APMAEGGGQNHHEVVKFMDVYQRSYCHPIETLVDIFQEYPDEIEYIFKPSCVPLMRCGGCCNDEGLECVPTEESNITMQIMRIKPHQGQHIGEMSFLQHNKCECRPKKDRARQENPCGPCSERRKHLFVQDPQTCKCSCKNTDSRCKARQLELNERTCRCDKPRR

B1: fusion protein R1R2R1R2 (SEQ ID NO:24), single chain VEGF mini-trap (receptor)
chain: SDTGRPFVEMYSEIPEIIHMTEGRELVIPCRVTSPNITVTLKKFPLDTLIPDGKRIIWDSRKGFIISNATYKEIGLLTCEATVNGHLYKTNYLTHRQTNTIIDVVLSPSHGIELSVGEKLVLNCTARTELNVGIDFNWEYPSSKHQHKKLVNRDLKTQSGSEMKKFLSTLTIDGVTRSDQGLYTCAASSGLMTKKNSTFVRVHEKGPGRPFVEMYSEIPEIIHMTEGRELVIPCRVTSPNITVTLKKFPLDTLIPDGKRIIWDSRKGFIISNATYKEIGLLTCEATVNGHLYKTNYLTHRQTNTIIDVVLSPSHGIELSVGEKLVLNCTARTELNVGIDFNWEYPSSKHQHKKLVNRDLKTQSGSEMKKFLSTLTIDGVTRSDQGLYTCAASSGLMTKKNSTFVRVHEK
notes: Monomer, secreted from CHO K1 cells; also called R1R2-R1R2 VEGF mini-trap; (R1R2)2
Q: B1 was tested. Which “t½” value [1] did it give?
A: The value was 24.1 h.

Q: And the Kd [2]?
A: Its Kd is 1.76 pM.

Q: And the koff [2]?
A: The koff was 8e-06 s⁻¹.

Q: What about the kon [2] of the same binder?
A: The kon was 4.54e+06 M⁻¹ s⁻¹.

B2: recombinant monomeric R1R2-myc myc his (receptor, not shown: small tags and cut ends)
chain: GRPFVEMYSEIPEIIHMTEGRELVIPCRVTSPNITVTLKKFPLDTLIPDGKRIIWDSRKGFIISNATYKEIGLLTCEATVNGHLYKTNYLTHRQTNTIIDVVLSPSHGIELSVGEKLVLNCTARTELNVGIDFNWEYPSSKHQHKKLVNRDLKTQSGSEMKKFLSTLTIDGVTRSDQGLYTCAASSGLMTKKNSTFVRVHEK
modifications: Monomer with a C-terminal myc-myc-His tag that is not given in letters and is left out.
notes: Monomer; also called R1R2-myc myc his monomer
Q: Which “T1/2” value [3] does the source give for B2 here?
A: The value was 1.68 min.

Q: What about the koff [4] of the same binder?
A: The koff was 0.00674 s⁻¹.
